Experiments:
EBNA2 [1] = assay: Confocal immunofluorescence of EBNA2 and BS69 in EBV-infected B cells; assay type: cell-based, Epstein-Barr virus; settings: EBV infected B cells at 1 and 3 dpi
Protocol: 5x10^4/per 100 μl primary B cells were cultured in RPMI 1640 supplemented with 15% fetal calf serum (FCS), 2 mM L-glutamine, and penicillin/streptomycin, and aliquoted into a 96-well plate. 100 μL previously purified EBV [52] or PBS (mock infection) was utilized as the inoculum. Cells were collected at 0, 1, 3, 5, and 7 days of post-infection (dpi) and BS69 mRNA expression in virus or mock -infected B cells were determined as the relative expression levels versus GAPDH by quantitative reverse transcription real time PCR (qRT-PCR). For Western blot analysis, a total of 5x10^5 B cells with EBV infection were collected at 0, 1, 4, and 7 dpi, respectively. The primers for BS69 are […] (F) and […] (R), whereas the primers for GAPDH internal control are […] (F) and […] (R). The primers for chromatin immunoprecipitati on assays of the LMP1 promoter and GAPDH promoter control have been described previously. The amount of ChIPed DNA was quantified by real time PCR and represented as % of input DNA. For Immunofluorescence analysis (IFA), cells were fixed in 2% paraformaldehyde (Sigma) and subjected to an immunostaining protocol using antibodies for BS69 (Santa Cruz), and EBNA2 (Santa Cruz). […]

cancer cell growth = settings: in vitro and in vivo; cited from earlier work
Text: BS69 (ZMYND11) is an emerging tumor suppressor [19–21] that was originally identified as the Adenovirus protein E1A and EBNA2-interacting protein [22, 23]. […] BS69 contains, in addition to a C-terminal MYND (MYeloid translocation protein 8, Nervy and DEAF-1) domain, an N-terminal Plant Homo Domain (PHD) zinc finger, a Bromo domain and a PWWP domain.

[2] = system: EBNA1-mediated transcriptional activation of OriP-Luc reporter; assay: OriP-Luc reporter assay (EBNA1-mediated transcription); assay type: cell-based, Epstein-Barr virus; settings: 10 μg EBNA1 expression plasmid, 5 μg OriP-Luc reporter
Text: (§1) Cell culture and reporter gene assays for EBNA2-mediated transcription activation
(§2) The BS69CC-MYND dual domain, wild-type or the Q546A mutant, were inserted into a pCBS/FLAG mammalian expression vector [54], in which the BS69 fragments are preceded by a FLAG-tag. In the case of the Q546A/W550A BS69CC-MYND expression plasmid, the flanking DNA fragment was subcloned into the pSG5-Flag vector [55]. The EBNA2 expression vector harboring PXLXP1 or PXLXP2 mutations was generated by carrying out the PCR-based mutagenesis protocol provided by the manufactory (Stratagene). In each case, the codons of two prolines were replaced with the codons of alanine simultaneously. For EBNA2-dependent transcription reporter assays, 10 μg of the expression vector of EBNA2 (E2), 5 μg flag-BS69CC- MYND wild type, or Q546A plasmid, and 5 μg LMP1-Luc or Cp-Luc reporter plasmid, and 1 μg CMV-βGal control plasmid were co-transfected into BJAB cells following the protocol as described previously. For the parallel control, 10 μg EBNA1 expression plasmid and 5 μg OriP-Luc reporter plasmid were used instead. Luciferase and β-Gal activities were assayed by Orion L (Berthold). A DNA fragment encoding residues 375–465 of EBNA2 from EBV W91 strain [49] containing CR7 and CR8 of EBNA2 were inserted into pCD-Gal4(1–147) vector to generate pCD-Gal4-EBNA2(375–465), which encodes a GAL4-EBNA2 fusion protein. […]

[3] = system: Cp-Luc reporter, EBNA2-mediated transcriptional activation; assay: Cp-Luc reporter assay (EBNA2-mediated transcription) in BJAB cells; assay type: cell-based, Epstein-Barr virus; settings: 10 μg EBNA2 vector, 5 μg flag-BS69CC-MYND plasmid, 5 μg reporter
Text: as §1, §2

[4] = system: LMP1-Luc reporter, EBNA2-mediated transcriptional activation; assay: LMP1-Luc reporter assay (EBNA2-mediated transcription) in BJAB cells; assay type: cell-based, Epstein-Barr virus; settings: 10 μg EBNA2 vector, 5 μg flag-BS69CC-MYND plasmid, 5 μg reporter
Text: as §1, §2

[5] = system: G5-TK-Luc reporter, Gal4-EBNA2 transcriptional activation; assay: G5-TK-Luc reporter assay with Gal4-EBNA2 in HeLa cells; assay type: cell-based; settings: 10 ng BS69CC-MYND expression vector, relative to no Gal4 activator (set to 1), means of minimum 3 independent experiments each in triplicates
Text: as §1
The BS69CC-MYND dual domain, wild-type or the Q546A mutant, were inserted into a pCBS/FLAG mammalian expression vector [54], in which the BS69 fragments are preceded by a FLAG-tag. In the case of the Q546A/W550A BS69CC-MYND expression plasmid, the flanking DNA fragment was subcloned into the pSG5-Flag vector [55]. The EBNA2 expression vector harboring PXLXP1 or PXLXP2 mutations was generated by carrying out the PCR-based mutagenesis protocol provided by the manufactory (Stratagene). In each case, the codons of two prolines were replaced with the codons of alanine simultaneously. […]
Supplementary file ppat.1005414.s003.tif: S3 Fig In vivo transcription assays of G5-TK-Luc reporter gene. (A) The expression of Flag-tagged wild-type or Q546A BS69CC-MYND in HeLa cells was analyzed by Western blotting using anti-flag M2 monoclonal antibody. […] (B) Relative transcription activation by GAL4 DBD, Gal4-EBNA2 and Gal4-VP16 was analyzed in transfected HeLa cells in the absence or presence of 10 ng expression vector for wild-type BS69CC-MYND or its Q546A mutant. […]

LMP1-DNA (LMP1 promoter) = assay: ChIP at LMP1 promoter DNA in transfected BJAB cells; assay type: cell-based, Epstein-Barr virus; settings: M2 ChIP
Text: To determine whether BS69CC-MYND is able to associate with EBNA2 target promoters through protein-protein interactions, we performed Chromatin Immunoprecipitation (ChIP) assays using BJAB cells, in which flag-tagged wild-type, Q546A, or […] BS69CC-MYND was co-transfected with or without EBNA2 expression vector and a reporter plasmid containing the LMP1 promoter, LMP1-Luc. […] On the other hand, an EBNA2 ChIP brought down ~13% of LMP1-DNA, consistent with the fact that LMP1 is one of the target sites of EBNA2 [35, 36].
5x10^4/per 100 μl primary B cells were cultured in RPMI 1640 supplemented with 15% fetal calf serum (FCS), 2 mM L-glutamine, and penicillin/streptomycin, and aliquoted into a 96-well plate. […] Cells were collected at 0, 1, 3, 5, and 7 days of post-infection (dpi) and BS69 mRNA expression in virus or mock -infected B cells were determined as the relative expression levels versus GAPDH by quantitative reverse transcription real time PCR (qRT-PCR). […] The amount of ChIPed DNA was quantified by real time PCR and represented as % of input DNA. […]
The transfection-mediated co-immunoprecipitation (Co-IP) assay was employed to identify the physical interaction of EBNA2 with BS69CC-MYND using EBV-negative B lymphoma cells (BJAB). […] The proteins were detected and visualized using an ECL detection kit (Millipore). […]

EBNA2 [6] = assay: Co-immunoprecipitation of EBNA2 with flag-BS69CC-MYND in BJAB cells; assay type: cell-based, Epstein-Barr virus; settings: anti-flag M2 IP, Western blot
Text: To address whether the BS69 C-terminal domain, if expressed, interacts with EBNA2 in vivo, we ectopically co-expressed flag-tagged wild-type, Q546A, or Q546A/W550A BS69CC-MYND with EBNA2 in BJAB cells, followed by immunoprecipitation using anti-flag M2-conjugated sepharose and Western blotting with antibodies against EBNA2 and M2, respectively. […] In addition, the immunofluorescence (IF) image pointed to a reduction of large amount of BS69 expression in EBV infected B cells at 5 dpi, confirming the barely low expression levels of BS69 shown in Fig 4B.
Co-immunoprecipitation, chromatin immunoprecipitation (ChIP), and western blot analyses
The transfection-mediated co-immunoprecipitation (Co-IP) assay was employed to identify the physical interaction of EBNA2 with BS69CC-MYND using EBV-negative B lymphoma cells (BJAB). Cells were co-transfected with the expression plasmids of EBNA2 (E2) and flag- BS69CC-MYND wild type, Q546A mutant (Q546A), or Q546A/W550A mutant (Q546A/W550A) and subjected to IP analysis using M2-conjugated sepharose (Sigma). […] The proteins were detected and visualized using an ECL detection kit (Millipore). […] The protein levels of endogenous BS69 in the obtained cell lines were determined by Western blot using BS69 antibody (Santa Cruz biotechnology). […] The proteins were detected and visualized using an ECL detection kit (Millipore).

| Molecule | colocalization of EBNA2 and BS69 (EBNA2 [1]) | effect of BS69 overexpression on cancer cell growth (cancer cell growth) | suppression of EBNA1-mediated transcriptional activation of OriP-Luc [2] | relative transcriptional activation by EBNA2 in presence of BS69CC-MYND, Cp-Luc [3] [fold] | relative transcriptional activation by EBNA2 in presence of BS69CC-MYND, LMP1-Luc [4] [fold] | activation of G5-TK-Luc by Gal4-EBNA2 in presence of BS69CC-MYND [5] | ChIPed LMP1-DNA (LMP1-DNA (LMP1 promoter); absence of EBNA2 (similar to IgG negative control)) | ChIPed LMP1-DNA (LMP1-DNA (LMP1 promoter); presence of EBNA2, % of input DNA) | EBNA2 co-precipitation (EBNA2 [6]) |
| --- | --- | --- | --- | --- | --- | --- | --- | --- | --- |
| BS69: emerging tumor suppressor, Adenovirus protein E1A and EBNA2-interacting protein (protein, UniProt Q15326 1-602, looked up) Zinc finger MYND …: MARLTKRRQADTKAIQHLWAAIEIIRNQKQIANIDRITKYMSRVHGMHPKETTRQLSLAVKDGLIVETLTVGCKGSKAGIEQEGYWLPGDEIDWETENHDWYCFECHLPGEVLICDLCFRVYHSKCLSDEFRLRDSSSPWQCPVCRSIKKKNTNKQEMGTYLRFIVSRMKERAIDLNKKGKDNKHPMYRRLVHSAVDVPTIQEKVNEGKYRSYEEFKADAQLLLHNTVIFYGADSEQADIARMLYKDTCHELDELQLCKNCFYLSNARPDNWFCYPCIPNHELVWAKMKGFGFWPAKVMQKEDNQVDVRFFGHHHQRAWIPSENIQDITVNIHRLHVKRSMGWKKACDELELHQRFLREGRFWKSKNEDRGEEEAESSISSTSNEQLKVTQEPRAKKGRRNQSVEPKKEEPEPETEAVSSSQEIPTMPQPIEKVSVSTQTKKLSASSPRMLHRSTQTTNDGVCQSMCHDKYTKIFNDFKDRMKSDHKRETERVVREALEKLRSEMEEEKRQAVNKAVANMQGEMDRKCKQVKEKCKEEFVEEIKKLATQHKQLISQTKKKQWCYNCEEEAMYHCCWNTSYCSIKCQQEHWHAEHKRTCRRKR | colocalization of EBNA2 and BS69 appeared | suppresses cancer cell growth both in vitro and in vivo | failed to suppress |  |  |  |  |  |  |
| BS69CC-MYND: residues 440–562 of BS69/ZMYND11, tandem coiled-coil-MYND domains (protein, UniProt Q15326 440-562, looked up, fragment, coiled-coil-MYND domain FLAG tag, residues 440–562 of BS69/ZMYND11, tandem coiled-coil-MYND domains) TKKLSASSPRMLHRSTQTTNDGVCQSMCHDKYTKIFNDFKDRMKSDHKRETERVVREALEKLRSEMEEEKRQAVNKAVANMQGEMDRKCKQVKEKCKEEFVEEIKKLATQHKQLISQTKKKQW |  |  |  | ≤ 2 | ≤ 2 | less than 4 fold | 7–8 % over input DNA | ~ 17% | EBNA2 co-precipitates with wild-type flag-tagged BS69CC-MYND |
